Experimental data taken from paper PMC3923439, “Anti-inflammatory properties of a novel peptide interleukin 1 receptor antagonist” (Journal of Neuroinflammation, 2014).
No end group written: not given here.

Legend:
[1] = system: Cerebellar granule neurons; experiment: Survival of cerebellar granule neurons induced to undergo apoptosis by low potassium; assay type: cell-based, rat; conditions: 5 mM KCl, survival estimated 48 hours later
Procedure: (§1) Cerebellar granule neurons (CGNs) were prepared from 7-day-old Wistar rats (from Charles River Laboratories, Sulzfeld, Germany; or from Hygind Møllegård Erik Møllegaard Hansen, Ejby, Denmark) as previously described. Briefly, the cerebella were cleared of meninges and blood vessels, roughly homogenized by chopping and trypsinized. The cells were washed in the presence of DNAse I and soybean trypsin inhibitor (Sigma-Aldrich, St Louis, MO, USA), and cellular debris was pelleted by centrifugation. The fibroblastoid mouse cell line L929 (LVN; European Collection of Cell Cultures, Porton Down, UK) was routinely grown at 37°C with 5% CO2 in DMEM supplemented with 10% (vol/vol) FCS, 2 mM GlutaMAX, 100 U/ml penicillin and 100 μg/ml streptomycin.
(§2) Cerebellar granule neurons were plated at a density of 1 × 10^5 cells/cm^2 on poly-L-lysine-coated, eight-well Permanox Lab-Tek chamber slides (Nunc) in Neurobasal-A medium supplemented with 2% (vol/vol) B27 (Gibco BRL), 0.5% (vol/vol) GlutaMAX, 100 U/ml penicillin and 100 μg/ml streptomycin. The CGN survival assay was performed as previously described. The neurite outgrowth assay was also performed as previously described.
Figure 5 Effect of Ilantide and interleukin 1 receptor antagonist on survival of cerebellar granule neurons induced to undergo apoptosis. The neurons were allowed to differentiate for 7 days in a high-potassium (40 mM) medium before apoptosis was induced by changing to a low-potassium medium (5 mM). Survival was estimated 48 hours later. (A) The effect of insulin-like growth factor 1 (IGF-1), interleukin 1 receptor antagonist (IL-1Ra) and IL-1β on cerebellar granule neuron (CGN) apoptosis induced by 5 mM KCl. (B) The effect of Ilantide-m on CGN apoptosis induced by 5 mM KCl. […] The results from at least four independent experiments are expressed as mean ± SEM with untreated cultures induced to undergo apoptosis by 5 mM KCl set at 100%. *P < 0.05 and **P < 0.01 compared with untreated cultures induced to undergo apoptosis (one-way analysis of variance followed by Newman-Keuls post hoc test).

AMJ2-C8 macrophages = experiment: TNF-α secretion from IL-1β-activated macrophages (L929 bioassay); assay type: cell-based, mouse; conditions: 1.2 pM IL-1β, 24 hours; TNF-α by L929 survival with actinomycin D; hydrocortisone at 100 μM
Procedure: A murine alveolar macrophage cell line, AMJ2-C8 (American Type Culture Collection, Borås, Sweden), was routinely grown at 37°C with 5% CO2 in DMEM supplemented with 5% (vol/vol) FCS, 0.5% (v/v) 2-[4-(2-hydroxyethyl)piperazin-1-yl]ethanesulfonic acid (HEPES) (Gibco BRL), 2 mM GlutaMAX, 100 U/ml penicillin and 100 μg/ml streptomycin.
AMJ2-C8 macrophages were seeded into six-well multidishes at a density of 2.5 × 10^5 cells/well, and sIL-1RI, IL-1Ra or various concentrations of Ilantide were added to the cultures. Treatment with 100 μM hydrocortisone (Sigma-Aldrich, Brøndby, Denmark) was used as a positive control. After 10-minute incubation at 37°C, 1.2 pM IL-1β or IFN-γ (R&D Systems) was added to activate the macrophages. L929 cells were seeded onto a 96-well plate (Nunc, Roskilde, Denmark) at a density 0.2 × 10^2 cells/ml. Both cell cultures were incubated for 24 hours at 37°C. Conditioned medium from macrophages was collected and added to the L929 cell cultures together with actinomycin D (0.6 μg/well; Sigma-Aldrich). TNF-α is known to induce classic apoptosis in L929 cells in the presence of actinomycin D [12]. After 24-hour incubation at 37°C, 20 μl of 3-(4,5-dimethylthiazol-2-yl)-5-(3-carboxymethoxyphenyl)-2-(4-sulfophenyl)-2H-tetrazolium (Promega, Madison, WI, USA) were added to each well and incubated at 37°C in the dark for 45 minutes, then measured in an ELISA reader at 490 nm. To calculate the amount of TNF-α in the conditioned medium, fibroblasts were treated with standard concentrations of TNF-α (R&D Systems).

ectodomain of IL-1RI = target: T1, ectodomain of IL-1RI (Homo sapiens, UniProt P14778); experiment: Surface plasmon resonance binding of immobilized ligand to recombinant IL-1RI ectodomain; conditions: SPR, Biacore 2000, ligand immobilized on CM4 chip, IL-1RI ectodomain injected, 25°C
T1 construct: the recombinant ectodomain of IL-1RI (R&D Systems) was injected; purchased R&D Systems
T1 sequence (P14778 18-336 limits assumed): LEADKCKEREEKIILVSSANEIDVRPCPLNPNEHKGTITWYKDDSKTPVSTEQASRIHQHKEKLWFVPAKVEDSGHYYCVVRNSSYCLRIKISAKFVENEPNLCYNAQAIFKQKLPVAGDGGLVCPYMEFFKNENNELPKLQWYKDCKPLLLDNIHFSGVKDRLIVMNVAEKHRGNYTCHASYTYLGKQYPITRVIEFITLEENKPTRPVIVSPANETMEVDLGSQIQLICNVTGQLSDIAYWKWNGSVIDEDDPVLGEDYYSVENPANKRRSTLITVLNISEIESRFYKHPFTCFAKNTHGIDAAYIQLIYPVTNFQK
Procedure: (§3) The binding analysis was performed using a Biacore 2000 instrument (GE Healthcare Life Sciences) that contained 150 mM NaCl as running buffer at 25°C with 10 mM sodium phosphate (pH 7.4). The flow rate was 5 μl/min during immobilization. Ilantide peptide, IL-1β or IL-1Ra was immobilized on a CM4 sensor chip according to the manufacturer’s instructions, after which the recombinant ectodomain of IL-1RI (R&D Systems) was injected. The neural cell adhesion molecule (NCAM) immunoglobulin modules 1 and 2 (Ig1 and Ig2) were used as a negative control protein [9]. The data were analyzed using nonlinear curve-fitting with the manufacturer’s software.

[2] = system: double-Ig module (Ig1-Ig2) of NCAM; experiment: Surface plasmon resonance, negative control protein; assay type: binding; conditions: SPR
Procedure: as §3

[3] = system: Cerebellar granule neurons; experiment: Neurite outgrowth from cerebellar granule neurons; assay type: cell-based, rat; conditions: for Neurite outgrowth from CGNs: 7-day-old CGNs grown on fibroblast cells, 24 hours
Procedure: as §1, §2
Figure 6 Effect of Ilantide on neurite outgrowth from cerebellar granule neurons. Cerebellar granule neuron cultures were treated with interleukin 1 receptor antagonist (IL-1Ra) (A), soluble interleukin 1 receptor type I (sIL-1RI) (B), Ilantide-t (C) or IL-1β (D) for 24 hours. The cultures were fixed and immunostained with rabbit anti-rat growth-associated protein 43 (anti-GAP-43) primary antibodies and then with secondary Alexa Fluor 488 goat anti-rabbit antibodies. (E) Effect of IL-1β on neurite outgrowth induced by IL-1Ra. (F) Effect of IL-1β on neurite outgrowth induced by Ilantide-t. The results from three to four independent experiments are expressed as percentage ± SEM with untreated controls set at 100%, corresponding to an average neurite length of 19.3 ± 4.1 μm. *P < 0.05 and **P < 0.01 compared with untreated controls (A to D) or cultures treated with either IL-1Ra or Ilantide alone (E and F) by one-way analysis of variance followed by the Newman-Keuls post hoc test).

[4] = system: HEK-Blue IL-1β cells (IL-1RI / NF-κB); experiment: IL-1β-induced NF-κB activation, SEAP reporter; assay type: cell-based; conditions: 1.2 pM IL-1β, 24 hours, SEAP read at 600 nm, four independent experiments
Procedure: HEK-Blue IL-1β cells that contained an IL-1β-sensitive reporter (InvivoGen, San Diego, CA, USA) and HEK-Blue IL-6 cells that contained an IL-6-sensitive reporter (InvivoGen) were grown at 37°C with 5% CO2 in Dulbecco’s modified Eagle’s medium (DMEM) supplemented with 5% (vol/vol) fetal calf serum (FCS), 4.5 g/L glucose, 2 mM GlutaMAX medium, 100 U/ml penicillin, 100 μg/ml streptomycin (all obtained from Gibco BRL/Life Technologies, Taastrup, Denmark), 100 μg/ml zeocin, 200 μg/ml hygromycin and 100 μg/ml Normocin (all purchased from InvivoGen).
HEK-Blue IL-1β cells allow the monitoring of the activation of the NF-κB pathway specifically in response to IL-1β. They express a NF-κB-inducible secreted embryonic alkaline phosphatase (SEAP) reporter gene. The binding of IL-1β to its receptor IL-1RI on the surface of HEK-Blue IL-1β cells triggers a signaling cascade that leads to the activation NF-κB and the subsequent production of SEAP. HEK-Blue IL-1β cells were grown as described above. The cells were seeded onto a 96-well plate at a density 3.5 × 10^5 cells/ml. For the NF-κB activation assay, the cells were treated with 1.2 pM IL-1β alone or together with sIL-1RI, IL-1Ra or various concentrations of Ilantide. After 24 hours of incubation at 37°C, 150 μl of the cell supernatants were added to each well of a 96-well plate together with 50 μl of QUANTI-Blue (InvivoGen), incubated at 37°C for 40 minutes and measured in an enzyme-linked immunosorbent assay (ELISA) reader at 600 nm to determine the expression levels of reporter genes activated by NF-κB.

[5] = target: T2, recombinant ectodomain of IL-1 receptor type I (IL-1RI) (UniProt P14778 18-336); experiment: SPR; Biacore 2000; about 2,500 to 3,000 RU of Ilantide-t, IL-1β or IL-1Ra immobilised on a CM4 sensor chip; IL-1RI ectodomain (or NCAM Ig1-Ig2 as negative control) injected; 25°C, 10 mM sodium phosphate pH 7.4, 150 mM NaCl; apparent Kd; conditions: both partners purified
T2 construct: interleukin 1 receptor type I, ectodomain; No catalogue number, limits or tag are printed for the bought protein; also called sIL-1RI; soluble IL-1 receptor type I; source: bought: R&D Systems
T2 sequence (looked up): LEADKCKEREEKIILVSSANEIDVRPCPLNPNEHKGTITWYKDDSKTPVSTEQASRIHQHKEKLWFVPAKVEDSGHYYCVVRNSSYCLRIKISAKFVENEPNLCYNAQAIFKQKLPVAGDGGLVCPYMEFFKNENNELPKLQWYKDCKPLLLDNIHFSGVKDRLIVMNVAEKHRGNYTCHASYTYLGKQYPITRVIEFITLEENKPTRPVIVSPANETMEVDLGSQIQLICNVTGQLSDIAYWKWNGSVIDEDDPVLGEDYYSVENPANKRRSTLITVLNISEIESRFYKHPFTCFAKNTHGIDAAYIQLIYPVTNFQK

## IGF-1: insulin-like growth factor 1, positive control [reference compound]
[1]
  CGN survival after potassium withdrawal: inhibited

## C[C@]12CCC(=O)C=C1CC[C@@H]1[C@@H]2[C@@H](O)C[C@@]2(C)[C@H]1CC[C@]2(O)C(=O)CO [hydrocortisone, reference compound]
AMJ2-C8 macrophages
  Inhibition of IL-1β-induced TNF-α secretion in macrophages: completely inhibited

## IL-1β: recombinant interleukin 1β
Ectodomain of IL-1RI; 10 mM sodium phosphate pH 7.4, 150 mM NaCl
  k a: 8.56 ± 2.79 × 10^5 M^-1 s^-1
Ectodomain of IL-1RI; pH 7.4
  k d: 7.53 ± 2.03 × 10^-4 s^-1
[2]
  Binding to double-Ig module of NCAM (negative control): no significant binding
[3]
  Neurite outgrowth from CGNs: did not have neuritogenic effects
[3]; IL-1β at 1.5 nM and 7.5 nM
  Effect on the neuritogenic effect of both IL-1Ra and Ilantide-t: significantly inhibited

B1: sIL-1RI: soluble IL-1 receptor type I (recombinant ectodomain of IL-1RI) (protein)
chain: LEADKCKEREEKIILVSSANEIDVRPCPLNPNEHKGTITWYKDDSKTPVSTEQASRIHQHKEKLWFVPAKVEDSGHYYCVVRNSSYCLRIKISAKFVENEPNLCYNAQAIFKQKLPVAGDGGLVCPYMEFFKNENNELPKLQWYKDCKPLLLDNIHFSGVKDRLIVMNVAEKHRGNYTCHASYTYLGKQYPITRVIEFITLEENKPTRPVIVSPANETMEVDLGSQIQLICNVTGQLSDIAYWKWNGSVIDEDDPVLGEDYYSVENPANKRRSTLITVLNISEIESRFYKHPFTCFAKNTHGIDAAYIQLIYPVTNFQK
[4]
  Inhibition of NF-κB activation induced by IL-1β: dose-dependently inhibited
AMJ2-C8 macrophages
  Inhibition of IL-1β-induced TNF-α secretion in macrophages: significantly inhibited
[3]
  Neurite outgrowth from CGNs: significantly induced neurite outgrowth

B2: Ilantide-t (peptide)
peptide: SGRKSSKMQA
modifications: also: dendrimer of four monomers coupled to a lysine backbone
notes: ten residues from the N terminus of human IL-1 receptor antagonist (IL-1Ra); Four copies of the peptide on a lysine backbone; also called IL-1 antagonistic peptide (dendrimer form); source: synthetic peptide; bought: Schafer-N; further purified by gel filtration (Sephadex G-10)
[5]
  Kd: 27.5 nM
  koff: 0.00269 s⁻¹
  kon: 184000 M⁻¹ s⁻¹
